Where two headings read alike, the source gives them in different places. One block for each binder: values may come before it.
What was measured:
CD-52 peptide 741 [1] = assay: SPR
CD-52 peptide 741 [2] = assay: SPR; remark: listed apart in the source
[3] = biological target: SAM conjugate (~8 gp) (S5); assay: SPR; trivalent galactose glycopeptide conjugate
[4] = biological target: SAM conjugate (~1.6 GalNAc) (S10); assay: SPR; ~1.6 GalNAc
Control enzyme (S4) = assay: SPR
[5] = biological target: SAM conjugate (~0.8 GalNAc) (S9); assay: SPR; ~0.8 GalNAc

Kd (CD-52 peptide 741 [1]): 2.4 nM
B1: A114N (antibody)
heavy: not shown
light: DIVMTQTPLSLSVTPGQPASISCKSSQSLLYSNGKTYLNWLLQKPGQSPQRLIYLVSKLDSGVPDRFSGSGSGTDFTLKISRVEAEDVGVYYCVQGTHLHTFGQGTRLEIKRTVAAPSVFIFPPSDEQLKSGTASVVCLLNNFYPREAKVQWKVDNALQSGNSQESVTEQDSKDSTYSLSSTLTLSKADYEKHKVYACEVTHQGLSSPVTKSFNRGEC
modifications: additional N-linked glycan at N114 (Kabat)

Kd (CD-52 peptide 741 [2]): 1.85 nM
B2: S442N (antibody)
heavy: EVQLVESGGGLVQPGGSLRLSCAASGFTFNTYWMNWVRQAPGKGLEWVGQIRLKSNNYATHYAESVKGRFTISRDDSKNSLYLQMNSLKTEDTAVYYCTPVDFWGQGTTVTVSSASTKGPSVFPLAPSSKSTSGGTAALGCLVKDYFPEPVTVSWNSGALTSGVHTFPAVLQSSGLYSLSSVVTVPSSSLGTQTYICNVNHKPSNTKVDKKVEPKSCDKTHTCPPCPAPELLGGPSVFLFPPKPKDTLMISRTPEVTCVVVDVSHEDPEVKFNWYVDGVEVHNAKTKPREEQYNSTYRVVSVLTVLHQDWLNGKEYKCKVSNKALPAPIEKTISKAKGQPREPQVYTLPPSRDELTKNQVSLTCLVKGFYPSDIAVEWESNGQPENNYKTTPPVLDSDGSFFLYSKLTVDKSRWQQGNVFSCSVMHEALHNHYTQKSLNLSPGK
light: B1 light

Kd (CD-52 peptide 741 [2]): 1.35 nM
B3: NGT (antibody)
heavy: not shown
light: B1 light

Kd (CD-52 peptide 741 [2]): 1.8 nM
B4: S298N/Y300S (antibody)
heavy: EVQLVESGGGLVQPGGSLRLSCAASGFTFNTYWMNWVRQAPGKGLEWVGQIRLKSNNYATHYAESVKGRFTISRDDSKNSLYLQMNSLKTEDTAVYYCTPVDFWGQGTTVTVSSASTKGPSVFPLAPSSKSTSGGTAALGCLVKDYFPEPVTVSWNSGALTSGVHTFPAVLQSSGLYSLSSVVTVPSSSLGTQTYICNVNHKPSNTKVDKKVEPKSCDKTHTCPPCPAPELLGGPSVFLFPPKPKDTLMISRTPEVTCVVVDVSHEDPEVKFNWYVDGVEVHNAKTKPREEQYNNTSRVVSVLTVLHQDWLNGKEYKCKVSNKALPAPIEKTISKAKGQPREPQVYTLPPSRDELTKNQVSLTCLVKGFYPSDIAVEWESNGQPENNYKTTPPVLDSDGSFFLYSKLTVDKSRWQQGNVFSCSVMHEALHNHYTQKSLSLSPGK
light: B1 light

Kd (CD-52 peptide 741 [2]): 1.75 nM
Kd (CD-52 peptide 741 [1]): 2.1 nM
B5: WT 2C3 (antibody)
heavy: not shown
light: B1 light

Kd (CD-52 peptide 741 [2]): 1.95 nM
B6: Y436T (antibody)
heavy: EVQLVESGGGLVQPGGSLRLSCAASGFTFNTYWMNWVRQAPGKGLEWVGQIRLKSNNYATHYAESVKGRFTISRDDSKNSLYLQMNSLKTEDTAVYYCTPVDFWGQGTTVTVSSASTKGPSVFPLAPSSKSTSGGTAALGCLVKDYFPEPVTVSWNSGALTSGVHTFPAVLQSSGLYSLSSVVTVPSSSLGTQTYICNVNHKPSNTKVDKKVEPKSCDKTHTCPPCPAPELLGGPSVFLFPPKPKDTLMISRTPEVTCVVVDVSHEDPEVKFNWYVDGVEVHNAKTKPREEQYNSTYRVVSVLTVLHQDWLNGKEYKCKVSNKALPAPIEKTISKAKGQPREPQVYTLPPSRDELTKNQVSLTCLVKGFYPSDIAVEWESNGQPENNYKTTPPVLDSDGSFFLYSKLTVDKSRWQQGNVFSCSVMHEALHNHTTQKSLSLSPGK
light: B1 light

Kd (CD-52 peptide 741 [2]): 1.73 nM
B7: Y436S (antibody)
heavy: not shown
light: B1 light

Kd (CD-52 peptide 741 [2]): 1.84 nM
B8: S440N (antibody)
heavy: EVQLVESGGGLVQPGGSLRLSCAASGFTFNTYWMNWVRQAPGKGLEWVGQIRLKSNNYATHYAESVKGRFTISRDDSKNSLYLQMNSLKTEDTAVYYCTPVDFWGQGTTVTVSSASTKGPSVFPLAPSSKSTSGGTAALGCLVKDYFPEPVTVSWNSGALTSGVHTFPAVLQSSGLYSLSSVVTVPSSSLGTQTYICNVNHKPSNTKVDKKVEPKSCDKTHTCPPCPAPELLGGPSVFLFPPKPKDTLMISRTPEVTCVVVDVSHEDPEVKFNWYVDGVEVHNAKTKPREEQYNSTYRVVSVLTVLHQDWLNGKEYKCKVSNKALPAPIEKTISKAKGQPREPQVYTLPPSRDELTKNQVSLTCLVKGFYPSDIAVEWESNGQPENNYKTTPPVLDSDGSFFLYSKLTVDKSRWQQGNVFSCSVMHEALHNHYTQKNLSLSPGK
light: B1 light

koff [3]: 0.0387 s⁻¹
koff [4]: 0.000296 s⁻¹
koff (Control enzyme (S4)): 0.0515 s⁻¹
koff [5]: 0.00107 s⁻¹
B9: ASGPR receptor subunit H1 (receptor)
chain: QNSQLQEELRGLRETFSNFTASTEAQVKGLSTQGGNVGRKMKSLESQLEKQQKDLSEDHSSLLLHVKQFVSDLRSLSCQMAALQGNGSERTCCPVNWVEHERSCYWFSRSGKAWADADNYCRLEDAHLVVVTSWEEQKFVQHHIGPVNTWMGLHDQNGPWKWVDGTDYETGFKNWRPEQPDDWYGHGLGGGEDCAHFTDDGRWNDDVCQRPYRWVCETELDKASQEPPLL

From patent US20160136299A1 (published 2016)
